Reference: patent US8765444 (BOARD OF TRUSTEES OF THE UNIVERSITY OF ILLINOIS, dated 2014)

Molecular target: T1, TBK1 (as used in Example 6; construct not named) (Homo sapiens (Human), UniProt Q9UHD2 1-729)
T1 construct: also called HA-TBK1 (constructed, probably the one used)
T1 sequence: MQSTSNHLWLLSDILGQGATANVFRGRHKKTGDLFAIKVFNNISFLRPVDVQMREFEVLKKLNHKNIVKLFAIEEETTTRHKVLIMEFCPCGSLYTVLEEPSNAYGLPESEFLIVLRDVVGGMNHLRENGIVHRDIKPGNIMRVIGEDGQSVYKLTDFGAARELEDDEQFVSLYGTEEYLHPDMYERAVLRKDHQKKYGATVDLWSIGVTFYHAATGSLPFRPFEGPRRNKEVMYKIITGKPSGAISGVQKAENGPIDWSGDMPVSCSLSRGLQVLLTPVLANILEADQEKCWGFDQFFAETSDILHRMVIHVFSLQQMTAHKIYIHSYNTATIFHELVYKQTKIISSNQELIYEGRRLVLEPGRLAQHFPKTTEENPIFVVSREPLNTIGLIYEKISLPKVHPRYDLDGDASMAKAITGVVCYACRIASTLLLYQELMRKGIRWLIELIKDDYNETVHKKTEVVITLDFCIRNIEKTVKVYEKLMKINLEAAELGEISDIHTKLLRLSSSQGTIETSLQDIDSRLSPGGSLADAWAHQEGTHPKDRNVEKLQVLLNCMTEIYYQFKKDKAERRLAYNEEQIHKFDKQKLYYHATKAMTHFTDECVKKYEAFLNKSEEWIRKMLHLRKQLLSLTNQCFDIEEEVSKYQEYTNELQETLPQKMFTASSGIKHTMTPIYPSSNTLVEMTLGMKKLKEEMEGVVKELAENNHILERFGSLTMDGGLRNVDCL
Assay: co-immunoprecipitation from transfected 293T cells

B1: FLAG-γ134.5 Δ72 (other)
chain: MARRRRHRGPRRPRPPGPTGAVPTAQSQVASDDDDDDDWPDSPPPEPAPEARPTAAAPRPRSPPPGAGPGGGANPSHPPSRPFRLPPRLALRLRVTAEHLARLRLRRAGGEGAPEPPATPATPATPATPATPATPATPATPATPATPARVRFSPHVRVRHLVVWASAARLARRGSWARERADRARFRRRVAEAEAVIGPCLGPEARARALARGAGPANSV
notes: Deletion 'encompassing amino acids 30 to 72'; the printed limits overlap with the neighbouring deletions, so the exact junction is uncertain
binding result: binds

B2: FLAG-γ134.5 N159 (other)
chain: MARRRRHRGPRRPRPPGPTGAVPTAQSQVTSTPNSEPAVRSAPAAAPPPPPASGPPPSCSLLLRQWLHVPESASDDDDDDDWPDSPPPEPAPEARPTAAAPRPRSPPPGAGPGGGANPSHPPSRPFRLPPRLALRLRVTAEHLARLRLRRAGGEGAPE
notes: Carboxyl-terminal domain deleted; the exact last residue (158 or 159) is uncertain
binding result: binds

B3: FLAG-γ134.5 Δ30 (other)
chain: STPNSEPAVRSAPAAAPPPPPASGPPPSCSLLLRQWLHVPESASDDDDDDDWPDSPPPEPAPEARPTAAAPRPRSPPPGAGPGGGANPSHPPSRPFRLPPRLALRLRVTAEHLARLRLRRAGGEGAPEPPATPATPATPATPATPATPATPATPATPATPARVRFSPHVRVRHLVVWASAARLARRGSWARERADRARFRRRVAEAEAVIGPCLGPEARARALARGAGPANSV
notes: Deletion 'encompassing amino acids 1 to 30'
binding result: binds
